The target of assay [1] is T1, recombinant matriptase protease domain with an N-terminal thioredoxin tag (Trx-MTX PD) (human) (UniProt Q9Y5Y6).
T1 sequence: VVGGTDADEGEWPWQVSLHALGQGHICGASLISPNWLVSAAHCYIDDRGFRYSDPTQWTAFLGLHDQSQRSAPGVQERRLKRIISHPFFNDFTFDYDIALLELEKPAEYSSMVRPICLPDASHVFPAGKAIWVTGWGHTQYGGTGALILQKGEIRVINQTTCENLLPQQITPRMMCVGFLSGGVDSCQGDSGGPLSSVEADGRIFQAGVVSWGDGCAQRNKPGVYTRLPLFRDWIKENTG

For assay [2], the target named is T1, recombinant matriptase protease domain with an N-terminal thioredoxin tag (Trx-MTX PD) (human). Briefly: SPR; BIAcore; Trx-MTX PD amine-coupled to a CM5 chip; GST fusion proteins as analytes at 30 µl/min, 120 sec association, 180 sec dissociation; 10 mM HEPES, 150 mM NaCl, pH 7.4; KD by affinity analysis (BIAevaluation), called estimated.
In assay [3] the target is T2, recombinant matriptase protease domain with an N-terminal thioredoxin tag (Trx-MTX PD) (human, UniProt Q9Y5Y6 615-854).
T2 chain: T1 sequence
Briefly: SPR.

As to “recombinant HAI-2 KD2-deleted mutant (rHAI-2ΔKD2) from the baculovirus expression system (from UniProt O43291 28-197) (domain or fragment)”, the inhibition of the in vitro proteolytic activity of Trx-MTX PD (100 nM) on Boc-Gln-Ala-Arg-AMC by rHAI-2ΔKD2 (500 nM) in assay [1] is 99%.
Take “recombinant HAI-2 KD1-deleted mutant (rHAI-2ΔKD1) from the baculovirus expression system (from UniProt O43291 28-197) (domain or fragment)”: in assay [1], the inhibition of the in vitro proteolytic activity of Trx-MTX PD (100 nM) on Boc-Gln-Ala-Arg-AMC by rHAI-2ΔKD1 (500 nM) amounted to 80%.

B1: GST fusion protein of HAI-2 Kunitz domain 1 (GST-KD1) (domain or fragment)
chain: CLVSKVVGRCRASMPRWWYNVTDGSCQLFVYGGCDGNSNNYLTKEECLKKC
For the molecule B1, the Kd (commonly the constant that tells how readily two partners part at equilibrium) in assay [2] is 10 nM; in assay [3] it was 45.7 nM.

B2: recombinant HAI-2 wild type (rHAI-2 WT) from the baculovirus expression system (domain or fragment)
chain: ADRERSIHDFCLVSKVVGRCRASMPRWWYNVTDGSCQLFVYGGCDGNSNNYLTKEECLKKCATVTENATGDLATSRNAADSSVPSAPRRQDSEDHSSDMFNYEEYCTANAVTGPCRASFPRWYFDVERNSCNNFIYGGCRGNKNSYRSEEACMLRCFRQQENPPLPLGSK
As to B2, the inhibition of the in vitro proteolytic activity of Trx-MTX PD (100 nM) on Boc-Gln-Ala-Arg-AMC by rHAI-2 WT (500 nM) in assay [1] amounted to 99%.

B3: GST fusion protein of HAI-2 Kunitz domain 2 (GST-KD2) (domain or fragment)
chain: CTANAVTGPCRASFPRWYFDVERNSCNNFIYGGCRGNKNSYRSEEACMLRC
On to B3, for which the values for the dissociation constant Kd in assay [2] and in assay [3] were 10 nM and 35.5 nM, respectively.
